The record followed here is US20150037277A1.

Holding throughout (assay): ELISA, plate coated with OVA-peptide conjugate, adjuvant-only control egg antibody, dilution not stated
Test [1] concerns the target IL-10 Peptide #1 (SEQ ID NO: 1) conjugated to hen ovalbumin (Chicken, quail, turkey; hen) (UniProt P01012).
Test [2] concerns the target IL-10 Peptide #3 (SEQ ID NO: 4) conjugated to hen ovalbumin (Chicken, quail, turkey; hen) (UniProt P01012).
Test [3] has as its target IL-10 Peptide #4 (SEQ ID NO: 5) conjugated to hen ovalbumin (Chicken, quail, turkey; hen) (UniProt P01012).

With “adjuvant only injected control egg antibody”, the optical density in test [1] turned out to be 0.562 OD at 450 nm; in test [2] it was 0.499 OD at 450 nm; in test [3], 0.6 OD at 450 nm.
